Source: the supplement of paper PMC11246515
± gives the standard deviation of the averaged measurements.

Assay: total protein half-life in vivo (active degradation + dilution); higher = more stable protein
[1] = E. coli NCM3722 delta-clpP delta-lon delta-hslV, growth: N-lim chemostat, doubling time 6 h
[2] = E. coli NCM3722 delta-hslV, growth: N-lim chemostat, doubling time 6 h
[3] = E. coli NCM3722 delta-lon, growth: N-lim chemostat, doubling time 6 h
[4] = E. coli NCM3722 delta-smpB, growth: N-lim chemostat, doubling time 6 h
[5] = wild type E. coli NCM3722, growth: C-lim chemostat, doubling time 3 h
[6] = wild type E. coli NCM3722, growth: C-lim chemostat, doubling time 6 h
[7] = wild type E. coli NCM3722, growth: C-lim chemostat, doubling time 12 h
[8] = wild type E. coli NCM3722, growth: N-lim chemostat, doubling time 6 h
[9] = wild type E. coli NCM3722, growth: N-lim chemostat, doubling time 12 h
[10] = wild type E. coli NCM3722, growth: P-lim chemostat, doubling time 6 h
[11] = wild type E. coli NCM3722, growth: P-lim chemostat, doubling time 12 h
[12] = E. coli NCM3722 delta-clpP, growth: N-lim chemostat, doubling time 6 h

| Sequence | total protein half-life in vivo [1] | total protein half-life in vivo [2] | total protein half-life in vivo [3] | total protein half-life in vivo [4] | total protein half-life in vivo [5] | total protein half-life in vivo [6] | total protein half-life in vivo [7] | total protein half-life in vivo [8] | total protein half-life in vivo [9] | total protein half-life in vivo [10] | total protein half-life in vivo [11] | total protein half-life in vivo [12] |
| --- | --- | --- | --- | --- | --- | --- | --- | --- | --- | --- | --- | --- |
| MVSSFTSAPRSGFYYFAQGWKLVSQPGIRRFVILPLLVNILLMGGAFWWLFTQLDVWIPTLMSYVPDWLQWLSYLLWPLAVISVLLVFGYFFSTIANWIAAPFNGLLAEQLEARLTGATPPDTGIFGIMKDVPRIMKREWQKFAWYLPRAIVLLILYFIPGIGQTVAPVLWFLFSAWMLAIQYCDYPFDNHKVPFKEMRTALRTRKITNMQFGALTSLFTMIPLLNLFIMPVAVCGATAMWVDCYRDKHAMWR [P0A6J3] | 6.46 h | 5.84 h | 6.33 ± 0.76 h | 6.144 ± 0.028 h | 3.19 ± 0.53 h | 5.49 ± 0.6 h | 12.3 h | 6.67 h | 13.7 ± 1.9 h | 7.18 h | 13.2 ± 0.26 h | – |
| MVTFHTNHGDIVIKTFDDKAPETVKNFLDYCREGFYNNTIFHRVINGFMIQGGGFEPGMKQKATKEPIKNEANNGLKNTRGTLAMARTQAPHSATAQFFINVVDNDFLNFSGESLQGWGYCVFAEVVDGMDVVDKIKGVATGRSGMHQDVPKEDVIIESVTVSE | 4.83 ± 0.65 h | 4.92 ± 0.92 h | 4.83 ± 0.27 h | 4.11 ± 0.046 h | 3.3 ± 0.97 h | 6.03 ± 0.56 h | 9.92 ± 0.88 h | 4.507 ± 0.039 h | 7.49 ± 1.2 h | – | 11.1 ± 0.3 h | 4.38 h |
| MVTINNARKILQRVDTLPLYLHAYAFHLNMRLERVLPADLLDIASENNLRGVKIHVLDGERFSLGNMDDKELSAFGDKARRLNLDIHIETSASDKASIDEAVAIALKTGASSVRFYPRYEGNLRDVLSIIANDIAYVRETYQDSGLTFTIEQHEDLKSHELVSLVKESEMESLSLLFDFANMINANEHPIDALKTMAPHITQVHIKDALIVKEPGGLGHKACISGQGDMPFKALLTHLICLGDDEPQVTAYGLEEEVDYYAPAFRFEDEDDNPWIPYRQMSETPLPENHLLDARLRKEKEDAINQINHVRNVLQQIKQEANHLLNH | 4.45 ± 0.4 h | 2.28 ± 0.57 h | 3.21 h | 1.68 ± 0.29 h | 1.99 ± 0.052 h | 2.9 h | 4.36 ± 0.28 h | 2.77 h | 3.27 ± 0.036 h | 2.88 h | 4.74 ± 0.53 h | 2.09 ± 0.14 h |
| MVTSCTGHVLDNQRATTRGVFSSGSHLVTLHFQPHPFFSCVTDAVNGARSRFSAFYPKANYGLQGSQPSDVRAHNRAANGACDEYKQLKVLSMGRQKAVIKARREAKRVLRRDSRSHKQREEESVTSLVQMGGVEAIGMARDSRDTSPILARNEAQLHYLKAIESKQLIFATGEAGCGKTWISAAKAAEALIHKDVDRIIVTRPVLQADEDLGFLPGDIAEKFAPYFRPVYDVLVRRLGASFMQYCLRPEIGKVEIAPFAYMRGRTFENAVVILDEAQNVTAAQMKMFLTRLGENVTVIVNGDITQCDLPRGVCSGLSDALERFEEDEMVGIVRFGKEDCVRSALCQRTLHAYS [P0A9K1] | 5.82 ± 0.65 h | 0.55 ± 0.47 h | 0.666 ± 0.43 h | 0.308 ± 0.011 h | 0.166 ± 0.058 h | 0.347 ± 0.25 h | 0.864 h | 0.735 ± 0.45 h | 0.571 h | 0.355 h | 1.23 ± 0.8 h | 1.96 ± 0.059 h |
| MVWIDYAIIAVIAFSSLVSLIRGFVREALSLVTWGCAFFVASHYYTYLSVWFTGFEDELVRNGIAIAVLFIATLIVGAIVNFVIGQLVEKTGLSGTDRVLGVCFGALRGVLIVAAILFFLDSFTGVSKSEDWSKSQLIPQFSFIIRCFFDYLQSSSSFLPRA | – | – | – | – | – | – | – | – | 7.81 h | – | – | – |
| MWDVIDLSRWQFALTALYHFLFVPLTLGLIFLLAIMETIYVVTGKTIYRDMTRFWGKLFGINFALGVATGLTMEFQFGTNWSFYSNYVGDIFGAPLAMEALMAFFLESTFVGLFFFGWQRLNKYQHLLVTWLVAFGSNLSALWILNANGWMQYPTGAHFDIDTLRMEMTSFSELVFNPVSQVKFVHTVMAGYVTGAMFIMAISAWYLLRGRERNVALRSFAIGSVFGTLAIIGTLQLGDSSAYEVAQVQPVKLAAMEGEWQTEPAPAPFHVVAWPEQDQERNAFALKIPALLGILATHSLDKPVPGLKNLMAETYPRLQRGRMAWLLMQEISQGNREPHVLQAFRGLEGDLGYGMLLSRYAPDMNHVTAAQYQAAMRGAIPQVAPVFWSFRIMVGCGSLLLLVMLIALVQTLRGKIDQHRWVLKMALWSLPLPWIAIEAGWFMTEFGRQPWAIQDILPTYSAHSALTTGQLAFSLIMIVGLYTLFLIAEVYLMQKYARLGPSAMQSEQPTQQQG | 3.4 h | 4.58 ± 0.54 h | 1.46 h | 1.93 h | – | – | – | 5.27 ± 0.94 h | 14.6 h | 0.869 h | 2.11 h | – |
| MWKRLLIVSAVSAAMSSMALAAPLTVGFSQVGSESGWRAAETNVAKSEAEKRGITLKIADGQQKQENQIKAVRSFVAQGVDAIFIAPVVATGWEPVLKEAKDAEIPVFLLDRSIDVKDKSLYMTTVTADNILEGKLIGDWLVKEVNGKPCNVVELQGTVGASVAIDRKKGFAEAIKNAPNIKIIRSQSGDFTRSKGKEVMESFIKAENNGKNICMVYAHNDDMVIGAIQAIKEAGLKPGKDILTGSIDGVPDIYKAMMDGEANASVELTPNMAGPAFDALEKYKKDGTMPEKLTLTKSTLYLPDTAKEELEKKKNMGY | 5.47 ± 0.2 h | 6.128 ± 0.015 h | 5.93 ± 0.48 h | 5.06 ± 0.13 h | 3.09 ± 0.11 h | 6.11 ± 0.068 h | 12 ± 1.7 h | 5.68 ± 1.1 h | 11.9 ± 1.6 h | 5.4 ± 0.41 h | 13.35 ± 0.018 h | 5.64 ± 0.063 h |
